Assay results: the supplement of paper PMC10724198
± gives the standard deviation of the averaged measurements.

Legend:
Saccharomyces cerevisiae [1] = assay: protein stability index of tFT-peptide fusion (C-terminal peptide) (PSI (0-1 scale)); higher = more stable (slower turnover)
Experimental: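 MPS profiling in S. cerevisiae of the tFT-X12 degron library: putative degron peptides plus stable controls, 12 aa, fused to the C-terminus of a sfGFP-mCherry timer. Cells are FACS-sorted into 8 mCherry/sfGFP bins and deep-sequenced. PSI runs from 0 (unstable) to 1 (stable). Backgrounds are wild type, das1Δ and doa10Δ at 30 °C, and wild type, das1Δ, cdc34-1 and cdc53-1 at 37 °C; 2-3 technical replicates each.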

Saccharomyces cerevisiae [2] = assay: as above; details: genetic background: wild type; temperature: 30 C
[3] = genetic background: cdc34-1, temperature: 37 C
[4] = genetic background: cdc53-1, temperature: 37 C
[5] = genetic background: das1 deletion, temperature: 30 C
[6] = genetic background: das1 deletion, temperature: 37 C
[7] = genetic background: doa10 deletion, temperature: 30 C
[8] = genetic background: wild type, temperature: 30 C
[9] = genetic background: wild type, temperature: 37 C
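Note: PSI is a weighted mean of sequencing reads over stability bins, variants kept only with over 10 reads, mCherry proximal and sfGFP distal, peptide attached via GGGS linker.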

| Sequence | protein stability index (Saccharomyces cerevisiae [1]; [3]) | protein stability index (Saccharomyces cerevisiae [1]; [4]) | protein stability index (Saccharomyces cerevisiae [1]; [5]) | protein stability index (Saccharomyces cerevisiae [1]; [6]) | protein stability index (Saccharomyces cerevisiae [1]; [7]) | protein stability index (Saccharomyces cerevisiae [1]; [8]) | protein stability index (Saccharomyces cerevisiae [1]; [9]) | protein stability index (Saccharomyces cerevisiae [2]) |
| --- | --- | --- | --- | --- | --- | --- | --- | --- |
| ALMTFTLVFTYM | 0.168 ± 0.0067 | 0.296 ± 0.0055 | 0.181 ± 0.022 | 0.324 ± 0.02 | 0.209 ± 0.026 | 0.173 ± 0.027 | 0.278 ± 0.027 | 0.251 ± 0.014 |
| SWVSVLSELLAC | 0.224 ± 0.014 | 0.249 ± 0.017 | 0.251 ± 0.045 | 0.362 ± 0.0082 | 0.204 ± 0.0092 | 0.238 ± 0.025 | 0.2873 ± 0.0022 | 0.336 ± 0.022 |
| FSCLCLCVATSG | 0.348 ± 0.031 | 0.396 ± 0.056 | 0.221 ± 0.019 | 0.379 ± 0.015 | 0.237 ± 0.031 | 0.219 ± 0.023 | 0.355 ± 0.03 | 0.23 ± 0.013 |
| CLFFFFFHLPIF | 0.445 ± 0.022 | 0.508 ± 0.016 | 0.425 ± 0.026 | 0.533 ± 0.033 | 0.4011 ± 0.00062 | 0.389 ± 0.023 | 0.476 ± 0.021 | 0.472 ± 0.032 |
| LFPLLCLLLPSL | 0.614 ± 0.091 | 0.664 ± 0.033 | 0.548 ± 0.025 | 0.638 ± 0.0096 | 0.521 ± 0.027 | 0.522 ± 0.02 | 0.628 ± 0.0063 | 0.538 ± 0.065 |
| INHVIHAKLRFS | 0.629 ± 0.015 | 0.675 ± 0.082 | 0.643 ± 0.011 | 0.72 ± 0.03 | 0.11 ± 0.026 | 0.13 ± 0.03 | 0.249 ± 0.075 | 0.237 ± 0.066 |
| SFSIPILLLAFP | 0.264 ± 0.018 | 0.2229 ± 0.00014 | 0.311 ± 0.022 | 0.409 ± 0.011 | 0.451 ± 0.026 | 0.314 ± 0.021 | 0.3719 ± 0.0017 | 0.425 ± 0.006 |
| SWTAYSYQWVFF | 0.407 ± 0.025 | 0.57 ± 0.0072 | 0.4972 ± 0.0028 | 0.577 ± 0.016 | 0.0469 ± 0.0093 | 0.0403 ± 0.018 | 0.215 ± 0.031 | 0.128 ± 0.014 |
| FVGVLVLCVCRC | 0.0544 ± 0.0064 | 0.137 ± 0.015 | 0.17 ± 0.029 | 0.247 ± 0.021 | 0.116 ± 0.025 | 0.155 ± 0.025 | 0.21 ± 0.014 | 0.278 ± 0.024 |
| VFFRCVCCLSVF | 0.388 ± 0.029 | 0.408 ± 0.042 | 0.327 ± 0.024 | 0.412 ± 0.014 | 0.2533 ± 0.00085 | 0.264 ± 0.015 | 0.352 ± 0.007 | 0.307 ± 0.026 |
| ARFCFRIFSFAS | 0.159 ± 0.018 | 0.178 ± 0.0049 | 0.288 ± 0.032 | 0.168 ± 0.0092 | 0.0406 ± 0.0038 | 0.0456 ± 0.0018 | 0.0722 ± 0.018 | 0.0816 ± 0.0097 |
| QVVWAVPRICLV | 0.53508 ± 0.00047 | 0.567 ± 0.0099 | 0.438 ± 0.015 | 0.579 ± 0.0091 | 0.335 ± 0.015 | 0.358 ± 0.028 | 0.505 ± 0.019 | 0.445 ± 0.063 |
| SGRKNQRILGLY | 0.656 ± 0.1 | 0.7334 ± 0.0067 | 0.6488 ± 0.0054 | 0.731 ± 0.023 | 0.199 ± 0.029 | 0.221 ± 0.038 | 0.497 ± 0.011 | 0.301 ± 0.055 |
| FLLAIVRGVWLA | 0.15 ± 0.029 | 0.115 ± 0.0084 | 0.257 ± 0.034 | 0.339 ± 0.014 | 0.154 ± 0.01 | 0.104 ± 0.032 | 0.112 ± 0.0028 | 0.176 ± 0.014 |
| LPHIFFCLFSLL | 0.582 ± 0.045 | 0.611 ± 0.047 | 0.562 ± 0.05 | 0.657 ± 0.066 | 0.203 ± 0.01 | 0.215 ± 0.024 | 0.317 ± 0.015 | 0.289 ± 0.026 |
| VWFCCLFFCFFV | 0.432 ± 0.021 | 0.448 ± 0.0086 | 0.378 ± 0.028 | 0.47 ± 0.011 | 0.4276 ± 0.0036 | 0.367 ± 0.012 | 0.41 ± 0.012 | 0.404 ± 0.028 |
| WFFLFGFVFFFR | 0.36 ± 0.059 | 0.4002 ± 0.0035 | 0.352 ± 0.044 | 0.475 ± 0.019 | 0.433 ± 0.018 | 0.351 ± 0.039 | 0.4444 ± 0.0032 | 0.411 ± 0.077 |
| VLLYRIAPRLLH | 0.597 ± 0.079 | 0.6841 ± 0.0027 | 0.6298 ± 0.0035 | 0.735 ± 0.016 | 0.181 ± 0.019 | 0.202 ± 0.023 | 0.4082 ± 0.0026 | 0.303 ± 0.03 |
| PLLLLLPSLLLV | 0.363 ± 0.027 | 0.413 ± 0.011 | 0.3 ± 0.029 | 0.439 ± 0.021 | 0.149 ± 0.0015 | 0.18 ± 0.017 | 0.248 ± 0.013 | 0.25 ± 0.025 |
